Like-named read-outs stand apart in the source and are kept apart here.
B1: His6-PAS(200)-muLeptin (ligand)
chain: ASPAAPAPASPAAPAPSAPAASPAAPAPASPAAPAPSAPAASPAAPAPASPAAPAPSAPAASPAAPAPASPAAPAPSAPAASPAAPAPASPAAPAPSAPAASPAAPAPASPAAPAPSAPAASPAAPAPASPAAPAPSAPAASPAAPAPASPAAPAPSAPAASPAAPAPASPAAPAPSAPAASPAAPAPASPAAPAPSAPAAVPIQKVQDDTKTLIKTIVTRINDISHTQSVSAKQRVTGLDFIPGLHPILSLSKMDQTLAVYQQVLTSLPSQNVLQIANDLENLRDLLHLLAFSKSCSLPQTSGLQKPESLDGVLEASLYSTEVVALSRLQGSLQDILQQLDVSPEC

What was measured:
[1] = molecular target: T1, recombinant LepR-Fc fusion protein (human, UniProt P48357 22-839)
T1 sequence (looked up): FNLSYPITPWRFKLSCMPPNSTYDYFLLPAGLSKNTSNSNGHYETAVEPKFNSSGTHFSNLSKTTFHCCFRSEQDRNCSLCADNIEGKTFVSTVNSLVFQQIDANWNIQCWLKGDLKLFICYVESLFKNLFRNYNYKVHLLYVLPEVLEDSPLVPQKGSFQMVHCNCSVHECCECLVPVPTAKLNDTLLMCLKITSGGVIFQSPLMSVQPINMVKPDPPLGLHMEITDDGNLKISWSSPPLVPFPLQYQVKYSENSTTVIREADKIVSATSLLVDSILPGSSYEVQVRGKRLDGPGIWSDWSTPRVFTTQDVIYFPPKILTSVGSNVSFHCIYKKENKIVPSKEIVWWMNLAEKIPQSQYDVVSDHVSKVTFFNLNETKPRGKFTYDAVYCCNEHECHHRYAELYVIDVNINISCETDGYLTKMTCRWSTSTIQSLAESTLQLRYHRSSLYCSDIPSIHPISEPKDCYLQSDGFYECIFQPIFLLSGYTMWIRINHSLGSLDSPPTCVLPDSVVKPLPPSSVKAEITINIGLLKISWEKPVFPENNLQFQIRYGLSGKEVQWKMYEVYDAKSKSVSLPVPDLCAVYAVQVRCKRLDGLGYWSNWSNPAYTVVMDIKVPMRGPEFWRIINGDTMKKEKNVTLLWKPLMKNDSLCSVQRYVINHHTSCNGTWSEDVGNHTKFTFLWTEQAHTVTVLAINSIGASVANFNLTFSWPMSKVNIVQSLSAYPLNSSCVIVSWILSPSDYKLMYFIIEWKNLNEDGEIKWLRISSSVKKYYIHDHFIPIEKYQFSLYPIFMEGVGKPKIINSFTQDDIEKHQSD

[2] = molecular target: T1, recombinant LepR-Fc fusion protein; assay: cell-based or functional assay

Row | Molecule | EC50 of STAT3-responsive dual luciferase reporter in HEK293 cells transiently transfected with human LepRb (whole receptor on cells); leptin 50 fM to 500 nM, 18 h [1] [nM] | other results
1 | human wild-type leptin (recombinant, unmodified) (from UniProt P41159 22-167) (ligand) | 0.1 | 
2 | huLeptin^W100Q (recombinant, unmodified) (from UniProt P41159 22-167) (ligand) | 0.13 | 
3 | huLeptin^W100E (recombinant, unmodified) (from UniProt P41159 22-167) (ligand) | 0.1 | 
4 | murine leptin (recombinant, unmodified) (from UniProt P41160 22-167) (ligand) | 0.04 | 
5 | PAS(200)-huLeptin (human wild-type leptin, PASylated) (from UniProt P41159 22-167) (ligand) |  | EC50 of STAT3-responsive dual luciferase reporter in HEK293 cells transiently transfected with human LepRb (whole receptor on cells); PASylated leptin 50 fM to 500 nM, 18 h [1]: 1.2 nM
6 | B1 |  | EC50 of STAT3-responsive dual luciferase reporter in HEK293 cells transiently transfected with human LepRb (whole receptor on cells); PASylated leptin 50 fM to 500 nM, 18 h [2]: 0.16 nM
